Measurements taken from paper PMC2913470.

Target: T1, p82 (r82; Teb1-like RPA1-related telomerase holoenzyme subunit p82) (Tetrahymena thermophila, UniProt D2CVN6 1-701)
T1 sequence: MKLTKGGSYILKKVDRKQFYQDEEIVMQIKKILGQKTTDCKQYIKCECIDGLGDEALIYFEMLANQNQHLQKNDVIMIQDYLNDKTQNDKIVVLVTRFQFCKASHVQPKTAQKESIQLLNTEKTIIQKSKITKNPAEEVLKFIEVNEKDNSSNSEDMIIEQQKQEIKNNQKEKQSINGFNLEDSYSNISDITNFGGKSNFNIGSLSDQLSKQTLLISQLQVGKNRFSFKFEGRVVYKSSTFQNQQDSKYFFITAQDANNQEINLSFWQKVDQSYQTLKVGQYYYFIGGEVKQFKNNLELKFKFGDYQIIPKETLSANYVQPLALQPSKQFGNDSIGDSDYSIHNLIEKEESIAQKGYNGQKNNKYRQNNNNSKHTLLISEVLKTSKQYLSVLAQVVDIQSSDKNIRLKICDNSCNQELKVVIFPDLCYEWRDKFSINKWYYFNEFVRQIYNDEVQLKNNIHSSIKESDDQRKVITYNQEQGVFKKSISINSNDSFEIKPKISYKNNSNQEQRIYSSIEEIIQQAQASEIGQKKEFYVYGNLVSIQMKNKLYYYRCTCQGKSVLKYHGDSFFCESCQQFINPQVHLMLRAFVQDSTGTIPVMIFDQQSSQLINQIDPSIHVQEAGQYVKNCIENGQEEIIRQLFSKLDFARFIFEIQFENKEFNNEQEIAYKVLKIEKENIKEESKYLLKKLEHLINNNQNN
Assay: EMSA

B1: dsTelo3 (dsDNA)
DNA 1: CCCCAACCCCAACCCCAA
DNA 2: TTGGGGTTGGGGTTGGGG
binding result: no binding
